Positions count from the first letter of the chain named.
T1: human BCMA-Fc (human, UniProt Q02223 5-51, limits assumed)
T1 construct: Bought from R&D Systems; also called huBCMA-Fc; BCMA-Fc (R&D Systems)
T1 chain (looked up): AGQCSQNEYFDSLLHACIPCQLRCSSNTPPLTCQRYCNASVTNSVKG

T2: BCMA on BCMA-positive NCI-H929, ARP-1 and U266B1 cells (human, UniProt Q02223 1-184)
T2 sequence: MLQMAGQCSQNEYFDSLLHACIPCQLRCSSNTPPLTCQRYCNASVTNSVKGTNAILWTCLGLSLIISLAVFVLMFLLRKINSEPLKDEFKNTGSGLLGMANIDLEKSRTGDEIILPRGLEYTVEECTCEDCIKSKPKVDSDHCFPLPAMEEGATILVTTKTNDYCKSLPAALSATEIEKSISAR

B1: 10F4 (antibody, V domains shown)
VH: AVTLDESGGGLQTPGGALSLVCKASGFTFSGYNMGWVRQAPGKGLEYVAGITYGTGSYTAYGAAVKGRATISRDNGQSTLRLQLNNLRAEDTATYYCARGGGLNSYGCSGANIDAWGHGTEVIVSS
VL: ALTQPSSVSANLGGTVKITCSGGGNYFGSYYYGWYQQKAPGSAPVTVIYNNNNRPSDIPSRFSGSTSGSTSTLTISGVRAEDEAVYFCGGFDSSTDAIFGAGTTLTVL
notes: chicken HybriFree-derived antibody; also called Antibody 37
B2: 9E12 (antibody, V domains shown)
VH: AVTLDESGGGLQTPGGGLSLVCKASGFTFSDYGLGWMRQAPGKGLEYVARINSAGSGTYYGSAVDGRATISRDNGQSTVRLQLNNLRAEDTGTYYCTRGGGGASIDGWGHGTEVIVSS
VL: B1 VL with L12P, G14E, N25S, F27Y, A39S, V47L, S71G, S76T, F87Y, G90S
notes: chicken HybriFree-derived antibody; also called Antibody 43
B3: 9A5 (antibody, V domains shown)
VH: AVTLDESGGGLQTPGGAVSLVCKASGFSISDYGMGWMRQAPGKGLQYVARIDHDGRYTDYGAVVKGRATISRDNGQSTVRLQLNNLRAEDTGTYYCTRGGGAASIDTWGHGTEVIVSS
VL: B1 VL with L12P, G14E, F27V, S29G, P44L, V47L, D57N, S76T, G90S
notes: chicken HybriFree-derived antibody; also called Antibody 42
B4: 10E10 (antibody, V domains shown)
VH: AVTLDESGGGLQTPGGGLSLVCKASGFTFSSYGMGWMRQAPGKGLEFVARINSGGSSYTDYGSAVKGRATISRDDGQSTVRLQLNNLRAEDTGIYYCTRGGGGASIDGWGHGTEVIVSS
VL: B1 VL with L12P, G14E, F27A, A39S, V45L, N51S, T66L, S71G, S76T
notes: chicken HybriFree-derived antibody; also called Antibody 46
B5: 10H1 (antibody, V domains shown)
VH: B2 VH with G17A, D31G, L34M, G57D, Y59D, S62A, D65K, G92A, Y95F
VL: B1 VL with L12P, G14E, F27Y, D57N, T66K, S71G, S76T, R79Q, T95S
notes: chicken HybriFree-derived antibody; also called Antibody 45
B6: 9H1 (antibody, V domains shown)
VH: AVTLDESGGGLQTPGGALSLVCKGSGFTFSDYGMGWMRQAPGKGLQYVARINSAGSDTNYGSAVKGRATISRDDGQSTVRLQLSSLRAEDTGIYYCTRGGGGASIDGWGHGTEVIVSS
VL: B1 VL with L12P, G14E, N25S, F27Y, A39S, V47L, S71G, S76T, F87Y, G90S
notes: chicken HybriFree-derived antibody; also called Antibody 44

Molecular target: T1, human BCMA-Fc
Assay: SPR (Biacore), captured antibody

| Binder | binding result |
| --- | --- |
| B1 | no binding (tested: antigen 1-100 nM) |

molecular target: T2, BCMA on BCMA-positive NCI-H929, ARP-1 …; assay: cell-based or functional assay

| Binder | ARP-1, SC239-conjugated 2° antibody cell killing, EC50 | ARP-1, SC239-conjugated 2° antibody cell killing, Span | U266B1, SC239-conjugated 2° antibody cell killing, EC50 | U266B1, SC239-conjugated 2° antibody cell killing, Span |
| --- | --- | --- | --- | --- |
| B2 | 1.2 nM | 80% | 1.4 nM | 47% |
| B1 | 1 nM | 87% | 0.36 nM | 81% |
| B3 | 0.7 nM | 93% | 0.29 nM | 84% |
| B4 | 3 nM | 46% | 2.5 nM | 20% |
| B5 | 0.86 nM | 88% | 0.29 nM | 89% |
| B6 | 1.3 nM | 74% | 1.1 nM | 50% |

molecular target: T3, rat BCMA on 293T-ratBCMA cells (rat); assay: FACS, 293T-ratBCMA cells
T3 construct: whole, on cells

| Binder | Bmax (MFI) |
| --- | --- |
| B2 | 4690 MFI |
| B1 | 410 MFI |
| B3 | 2780 MFI |
| B4 | 906 MFI |
| B5 | 4350 MFI |
| B6 | 3450 MFI |

molecular target: cynomolgus BCMA on 293T-cynoBCMA cells (cynomolgus, UniProt Q02223 1-184 (human entry)); assay: FACS, 293T-cynoBCMA cells
Sequence (Q02223 other isoform, or with tags, fused parts or gaps): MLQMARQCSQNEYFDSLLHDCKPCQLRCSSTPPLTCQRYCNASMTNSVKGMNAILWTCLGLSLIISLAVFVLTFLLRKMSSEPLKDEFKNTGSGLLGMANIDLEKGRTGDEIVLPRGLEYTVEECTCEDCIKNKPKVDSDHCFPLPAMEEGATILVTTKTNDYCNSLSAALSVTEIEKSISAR
Procedure: (§1) Variants for which sufficient protein was purified in secondary screening were tested in a fluorescence-activated cell sorting (FACS) cell-binding assay. […] 6-12 point dilutions of anti-BCMA variants starting from concentrations of about 100-200 nM antibody were dispensed into each well using a BioMekFX (Beckman Coulter). Cells were then incubated on ice for 1 hr, washed with FACS buffer and incubated for 1 hr on ice with […] FACS buffer containing […] Alexa647-conjugated Goat Anti-Human IgG dispensed using BioMekFX (Beckman Coulter). Cells were then washed 2× with FACS buffer and fixed for 10 minutes in […] PBS with 2% PFA prior to fluorescence detection. Samples were acquired using a Beckton Dickinson LSRII FACS. Geometric Mean Fluorescence Intensity of BCMA antibody binding was analyzed using FlowJo® software (Trec Star, Inc.).

| Binder | Bmax (MFI) |
| --- | --- |
| B2 | 13200 MFI |
| B1 | 12800 MFI |
| B3 | 18200 MFI |
| B4 | 4540 MFI |
| B5 | 21200 MFI |
| B6 | 11400 MFI |

molecular target: T2, BCMA on BCMA-positive NCI-H929, ARP-1 …; assay: FACS, NCI-H929 cells
Procedure: as §1

| Binder | Bmax (MFI) |
| --- | --- |
| B2 | 8140 MFI |
| B1 | 18700 MFI |
| B3 | 19700 MFI |
| B4 | 3440 MFI |
| B5 | 22500 MFI |
| B6 | 6160 MFI |

Source: patent publication US20240368295A1 (SUTRO BIOPHARMA, published 2024)
